The source of these data is patent US20090068110A1, “ANTIBODIES TO INSULIN-LIKE GROWTH FACTOR RECEPTOR” (Genentech, Inc., priority 2006, published 2009).

Data set [1] relates to A549 tumors. The data set is described as follows: A549 lung-cancer xenograft model. The data set is classed as in vivo, athymic nude mice. To be noted: h10H5.vX 5 mg/kg IP two times per week; vinorelbine 9 mg/kg weekly for first three weeks. From the text:
(§1) Female nude (nu/nu) and C.B-17 SCID beige mice were obtained from Charles Rivers Laboratories, Inc. (Hollister, Calif.). Animals were about six to eight weeks old and weighed about 25 grams each. Mice were acclimated to study conditions for at least three days before tumor-cell inoculations. The animals were housed in standard rodent micro-isolator cages. Only animals that appeared to be healthy and that were free of obvious abnormalities were used for the study. Each mouse was given a subcutaneous injection of SK-N-AS cells (10 million), SW527 cells (5 million), Colo205 cells (5 million), or A549 cells (5 million) into the dorsal right flank in a volume of 0.2 mL. Data collected from each experimental group were expressed as mean tumor volume±the standard error of the mean (SEM). Tumors were monitored until they reached a mean volume of 130-260 mm3. […] Tumors were measured twice weekly throughout the experiment starting on the first day of treatment. Tumor volumes were measured in two dimensions (length and width) using ULTRA CAL-IV™ calipers (Model 54-10-111, Fred V. Fowler Company, Inc.; Newton, Mass.), and calculated using the formula of: […]
(§2) Tumor-inhibition and body-weight graphs were plotted using […]™ 3.6 software (Synergy Software; Reading, Pa.). […]

For data set [2], the target named is human IGF-1R-ECD (secreted recombinant extracellular domain, amino acids 1-902, tagged with 10 or 12 histidine residues at the carboxyl terminus) (human) (UniProt P08069). The data set is described as follows: solid-phase binding assay: serially diluted antibody on plate-coated human IGF-1R-ECD, then biotinylated IGF-I (blocked ligand), streptavidin-HRP, A450; n=3.

Data set [3] has the same target. As to the kind of experiment: solid-phase binding assay: serially diluted antibody on plate-coated human IGF-1R-ECD, then biotinylated IGF-II (blocked ligand), streptavidin-HRP, A450; n=3.
For data set [4] the target is unchanged. The data set is described as follows: competition ELISA: antibody pre-incubated on plate-coated human IGF-1R-ECD, then biotinylated IGF-I (blocked ligand), streptavidin-HRP, A450. On the technique in general: An ELISA detects its analyte on a solid surface through an enzyme-linked reagent.
The conditions of data set [5]: CHF patients, enalapril in addition to conventional therapy; cited from earlier work.
The test system of data set [6] is SW527 xenograft tumors. The data set is described as follows: SW527 breast-cancer xenograft model. The data set is classed as in vivo, SCID beige mice.
Excerpt: as §1, §2
Tumor incidence was determined by the number of measurable tumors in each group. […]

Data set [7] deals with T1, IGF-1R α- and β-subunit in SK-N-AS cells (Homo sapiens, UniProt P08069).
T1 construct: h10H5-induced IGF-1R downregulation, SK-N-AS cells were pretreated; endogenous in cells; host or cells: SK-N-AS
The data set is described as follows: h10H5-induced IGF-1R down-regulation with proteasome or lysosomal protease inhibitors. It counts as cell-based. Conditions: one hour pretreatment; 30 μM bortezomib or 5 μM pepstatin A and 10 μg/ml leupeptin. The method, then:
Both proteasome and lysosome pathways have been implicated in ligand-mediated IGF-1R degradation. To examine whether these pathways contribute to h10H5-induced IGF-1R downregulation, SK-N-AS cells were pretreated with either a combination of 5 μM of pepstatin A and 10 μg/ml of leupeptin or 30 μM of VELCADE® bortezomib for one hour, and subsequently exposed to h10H5 treatment for 1 to 8 hours in the presence of protease or protesome inhibitors. Cell lysates were analyzed for IGF-1R α-subunit and β-subunit by Western blotting. β-actin was used as a loading control. Because the extracellular (ECD) and intracellular (ICD) domains are exposed to different cellular environments during the internalization and trafficking processes, antibodies that specifically react to the α-subunit that is a major part of ECD or the C-terminus of the β-subunit, and therefore a part of ICD, were used for Western blot analysis.

Data set [8] deals with Colo205-e215 xenograft tumors. The data set is described as follows: Colo205-e215 xenograft, combination with 5-FU. It counts as in vivo, athymic nude mice. Conditions: h10H5.vX weekly IP; 5-FU 100 mg/kg weekly for first three weeks.
Excerpt: as §1, §2

Data set [9] has as its target human IGF-1R-ECD (secreted recombinant extracellular domain, amino acids 1-902, tagged with 10 or 12 histidine residues at the carboxyl terminus) (human) (UniProt P08069). As to the kind of experiment: BIACORE surface plasmon resonance: IGF-1R immobilized on CM5 chip (about 500 RU), Fab injected 500-3.1 nM, 25 C, 1:1 Langmuir model. For orientation: In SPR one partner is held on a chip, and binding of the other changes the refractive index at the surface.

The target of data set [10] is murine IGF-1R-ECD (murine) (UniProt Q60751). The description is as above.
For data set [11], the target named is cynomolgus-monkey IGF-1R (cynomolgus monkey, UniProt G7P9I7 31-908). As to the kind of experiment: BIACORE surface plasmon resonance: IGF-1R immobilized on CM5 chip (about 500 RU), IgG injected 250-0.78 nM, 25 C, 1:1 Langmuir model (apparent affinity).
cynomolgus-monkey IGF-1R, sequence (G7P9I7 entry or part of it): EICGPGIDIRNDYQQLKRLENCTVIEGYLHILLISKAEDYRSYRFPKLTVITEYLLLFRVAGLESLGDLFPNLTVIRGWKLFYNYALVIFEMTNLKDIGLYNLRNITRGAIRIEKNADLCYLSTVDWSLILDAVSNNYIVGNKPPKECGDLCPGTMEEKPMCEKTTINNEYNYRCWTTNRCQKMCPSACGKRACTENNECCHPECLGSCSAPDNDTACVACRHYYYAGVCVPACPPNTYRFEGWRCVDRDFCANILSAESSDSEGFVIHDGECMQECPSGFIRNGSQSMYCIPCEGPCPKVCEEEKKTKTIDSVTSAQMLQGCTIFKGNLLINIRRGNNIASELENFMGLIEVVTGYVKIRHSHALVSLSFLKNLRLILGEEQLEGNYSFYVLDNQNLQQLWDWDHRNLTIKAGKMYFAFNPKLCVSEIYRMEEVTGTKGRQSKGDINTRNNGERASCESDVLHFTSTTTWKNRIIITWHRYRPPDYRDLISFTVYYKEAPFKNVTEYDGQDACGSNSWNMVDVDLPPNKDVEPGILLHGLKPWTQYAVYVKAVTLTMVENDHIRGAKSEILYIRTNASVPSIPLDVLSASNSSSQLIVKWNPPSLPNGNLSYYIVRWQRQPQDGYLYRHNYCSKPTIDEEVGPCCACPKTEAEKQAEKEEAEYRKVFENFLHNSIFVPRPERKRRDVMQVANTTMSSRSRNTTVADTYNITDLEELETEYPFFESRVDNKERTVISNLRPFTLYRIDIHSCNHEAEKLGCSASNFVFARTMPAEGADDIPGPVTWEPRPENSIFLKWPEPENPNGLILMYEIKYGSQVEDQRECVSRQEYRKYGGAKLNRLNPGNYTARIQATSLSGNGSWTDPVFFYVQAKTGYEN
Data set [12] addresses human IGF-1R-ECD (secreted recombinant extracellular domain, amino acids 1-902, tagged with 10 or 12 histidine residues at the carboxyl terminus) (human) (UniProt P08069). The description is as above.

In the case of `CCC1=C[C@@H]2CN(C1)Cc1c([nH]c3ccccc13)[C@@](C(=O)OC)(c1cc3c(cc1OC)N(C)[C@H]1[C@@](O)(C(=O)OC)[C@H](OC(C)=O)[C@]4(CC)C=CCN5CC[C@]31[C@@H]54)C2` [vinorelbine], the “inhibition of tumor growth (TGI) at day 21” value in [1] turned out to be 45%.
On to IR3, commercial anti-IGF-1R antibody, for which the IC50 (read off the curve) in [2] came out at 8 µg/mL; in data set [3], 5 µg/mL; in [4], 5 nM.
On to `CCOC(=O)[C@H](CCc1ccccc1)N[C@@H](C)C(=O)N1CCC[C@H]1C(=O)O` [enalapril], for which, in [5], the “reduction of the risk of developing cardiac cachexia” value is on record as 19%.
Turning to `CC(=O)O[C@@]12CO[C@@H]1C[C@H](O)[C@@]1(C)C(=O)[C@H](O)C3=C(C)[C@@H](OC(=O)[C@H](O)[C@@H](NC(=O)OC(C)(C)C)c4ccccc4)C[C@@](O)([C@@H](OC(=O)c4ccccc4)[C@H]21)C3(C)C` [docetaxel], in [6] (Example 5, h10H5 5 mg/kg weekly IP, docetaxel 12.5 mg/kg IV Days 0, 4, 8, B20-4.1 10 mg/kg weekly IP), the “TGI on Day 14” value worked out at 54%. Also, in data set [6] (single-agent docetaxel 12.5 mg/kg, two mice Day 8, two mice Day 12), the “body weight losses leading to euthanasia” value is listed as more than 20%.
On to `CC(C)C[C@H](NC(=O)[C@H](Cc1ccccc1)NC(=O)c1cnccn1)B(O)O` [VELCADE® bortezomib, bortezomib], for which the “effect on h10H5-induced IGF-1R subunit downregulation” value in data set [7] is listed as “more effective in preventing β-subunit downregulation”.
As to `O=c1[nH]cc(F)c(=O)[nH]1` [5-FU, 5-fluorouracil], the “% TGI at day 27” value in [8] was 53%.

B1: YW95.6 (Fab, V domains shown)
VH: EVQLVESGGGLVQPGGSLRLSCAASGFTFSSYAMSWVRQAPGKGLEWVSRISPSGGSTYYADSVKGRFTISADTSKNTAYLQMNSLRAEDTAVYYCAREEYYYWGAMDVWGQGTLVTVSS
VL: DIQMTQSPSSLSASVGDRVTITCRASQSISSYLAWYQQKPGKAPKLLIYGASSRASGVPSRFSGSGSGTDFTLTISSLQPEDFATYYCQQYYSSPLTFGQGTKVEIK
B1: the Kd in data set [9] is 7.3 nM; in data set [10], 8.6 nM.

B2: chimeric 10H5-IgG (antibody, V domains shown)
VH: QVQLQQPGAELVKPGASVTLSCKASGYTFTRFWIHWVKQRPGQGLEWIGEINPSNGRTNYNENFKNKATLTVDTSSSTAYMQLSSLTSEVSVVYYCARGGRLDQWGQGTT
VL: DIVMTQSQKFMSTSLGDRVSVTCKASQNVGSNVAWYQQKPGQSPEALIYSASYRYSGVPDRFTGSGSGTDFTLTISNVQSEDLAEYFCHQYNNYPYTFGGGTKVEIKR
notes: also called human chimeric 10H5
Take B2: the results for the Kd in [11] and in [12] were 0.13 nM and 0.1 nM, respectively.
